Tested on: CCC(=O)C(CC(C)N(C)C)(c1ccccc1)c1ccccc1
Experiment: purified protein, by the assay type
Details: other: 50 nM Pgp in liposomes; curve fit

## mouse Pgp (Abcb1a, MDR3) (Mus musculus)
  Km: 28 ± 10 µM

— publication PMC11027885, “Utilizing surface plasmon resonance as a novel method for monitoring in-vitro P-glycoprotein efflux” (Frontiers in biophysics, 2024)
